We go through 125 sequences from the supplement of paper PMC9112550, “Optimization of the antimicrobial peptide Bac7 by deep mutational scanning” (BMC Biology, 2022).
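Also: peptides expressed intracellularly from a pBAD plasmid library in pooled LB shake-flask culture, induced with 0.3% L-arabinose, DNA abundance read by NGS, three biological replicates, DESeq2 with apeglm shrinkage.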

The test system of this data set is Escherichia coli TOP10. Nature of the data set: shrunken log2 fold change of peptide-encoding DNA abundance (4.5 h post-induction vs induction); higher = less antimicrobial activity (less host growth inhibition). The following applies: time post-induction: 4.5 h; library: site-saturation at positions 5, 18, 19, 20.
As to RRIRVRPPRLPRPRPRPWDGPRP, the “shrunken log2 fold change” value was -0.00294. Consider RRIRSRPPRLPRPRPRPNFWPRP, for which the “shrunken log2 fold change” value was determined as 0.0869.

In the case of RRIRVRPPRLPRPRPRPLSEPRP, the “shrunken log2 fold change” value worked out at 0.0246.

For RRIRRRPPRLPRPRPRPMWWPRP, the “shrunken log2 fold change” value is 0.291. Next, RRIRVRPPRLPRPRPRPWRLPRP: 0.426; RRIRERPPRLPRPRPRPLHQPRP: -0.0505.

Consider RRIRYRPPRLPRPRPRPWWQPRP, for which the “shrunken log2 fold change” value was -0.00151. In the case of RRIRKRPPRLPRPRPRPNLDPRP, the “shrunken log2 fold change” value is -0.0443. Next, RRIRGRPPRLPRPRPRPIKGPRP: -0.0627.

Take RRIRGRPPRLPRPRPRPRNTPRP: the “shrunken log2 fold change” value came out at 0.0904. Turning to RRIRFRPPRLPRPRPRPNIIPRP, the “shrunken log2 fold change” value was -0.706. With RRIRPRPPRLPRPRPRPLSGPRP the figure was 0.0234; with RRIRHRPPRLPRPRPRPSCHPRP, -0.509; with RRIRKRPPRLPRPRPRPSNIPRP, -0.306. Next, RRIRNRPPRLPRPRPRPIRHPRP: -0.0817; RRIRRRPPRLPRPRPRPDGEPRP: -0.0341. Next, RRIRYRPPRLPRPRPRPAAFPRP: -0.757; RRIRTRPPRLPRPRPRPFNWPRP: -0.22; RRIRPRPPRLPRPRPRPCCFPRP: -0.133. RRIRTRPPRLPRPRPRPITAPRP: the “shrunken log2 fold change” value is -0.0416. Next, RRIRYRPPRLPRPRPRPEILPRP: -0.288; RRIRDRPPRLPRPRPRPTTTPRP: 0.654. With RRIRARPPRLPRPRPRPKSIPRP, the “shrunken log2 fold change” value is -0.078.

As for RRIRMRPPRLPRPRPRPPFFPRP, the “shrunken log2 fold change” value was determined as 0.528. Next, RRIRSRPPRLPRPRPRPIQVPRP: 0.0973; RRIRARPPRLPRPRPRPEDKPRP: 1.89; RRIRQRPPRLPRPRPRPTCFPRP: 0.132. Turning to RRIRFRPPRLPRPRPRPHGPPRP, the “shrunken log2 fold change” value was found to be 0.11. As to RRIRKRPPRLPRPRPRPKNLPRP, the “shrunken log2 fold change” value was 0.177. RRIRYRPPRLPRPRPRPLDWPRP: the “shrunken log2 fold change” value was 0.171. With RRIRLRPPRLPRPRPRPHNLPRP the figure was -0.11; with RRIRPRPPRLPRPRPRPCIEPRP, -0.291; with RRIRNRPPRLPRPRPRPCFNPRP, 0.0695. With RRIRRRPPRLPRPRPRPHFVPRP the figure was -0.103.

As for RRIRMRPPRLPRPRPRPGEPPRP, the “shrunken log2 fold change” value was 0.163. For RRIRERPPRLPRPRPRPTTAPRP, the “shrunken log2 fold change” value was determined as 0.0732. Next, RRIRCRPPRLPRPRPRPKYLPRP: -0.34; RRIRSRPPRLPRPRPRPKMGPRP: -0.108. With RRIRYRPPRLPRPRPRPHLAPRP the figure was 0.13; with RRIRVRPPRLPRPRPRPMQHPRP, 0.0443; with RRIRQRPPRLPRPRPRPEWDPRP, 0.0586. Next, RRIRERPPRLPRPRPRPTMEPRP: -0.116; RRIRKRPPRLPRPRPRPLQKPRP: -0.0368; RRIRMRPPRLPRPRPRPKIEPRP: 0.367. As for RRIRSRPPRLPRPRPRPAHYPRP, the “shrunken log2 fold change” value was -0.131.

As for RRIRRRPPRLPRPRPRPMWYPRP, the “shrunken log2 fold change” value stood at 0.0371. In the case of RRIRKRPPRLPRPRPRPRDYPRP, the “shrunken log2 fold change” value was found to be 0.0161.

With RRIRKRPPRLPRPRPRPWMHPRP, the “shrunken log2 fold change” value is 0.00994. Next, RRIRQRPPRLPRPRPRPKLGPRP: 0.00556; RRIRRRPPRLPRPRPRPNWLPRP: 0.121. Next, RRIRSRPPRLPRPRPRPNVQPRP: -0.335; RRIRDRPPRLPRPRPRPMQHPRP: -0.00754. With RRIRLRPPRLPRPRPRPSKGPRP the figure was -0.123; with RRIRWRPPRLPRPRPRPHGYPRP, -0.018. RRIRPRPPRLPRPRPRPIMKPRP: the “shrunken log2 fold change” value is -0.411. Consider RRIRRRPPRLPRPRPRPTDRPRP, for which the “shrunken log2 fold change” value was 0.194. In the case of RRIRWRPPRLPRPRPRPYRTPRP, the “shrunken log2 fold change” value is 0.00941.

Take RRIRIRPPRLPRPRPRPNLPPRP: the “shrunken log2 fold change” value was -0.173.

With RRIRTRPPRLPRPRPRPGDNPRP, the “shrunken log2 fold change” value is -0.00277. In the case of RRIRMRPPRLPRPRPRPQMPPRP, the “shrunken log2 fold change” value was 0.0529. With RRIRHRPPRLPRPRPRPAYKPRP the figure was -0.102; with RRIRCRPPRLPRPRPRPCTIPRP, 0.105; with RRIRNRPPRLPRPRPRPDDMPRP, -0.107. With RRIRTRPPRLPRPRPRPKLNPRP the figure was 0.097; with RRIRQRPPRLPRPRPRPSFEPRP, -0.213. With RRIRNRPPRLPRPRPRPNLRPRP the figure was -0.325; with RRIRVRPPRLPRPRPRPNELPRP, -0.00739.

For the sequence RRIRMRPPRLPRPRPRPLGAPRP, the “shrunken log2 fold change” value came out at 1.25. As for RRIRWRPPRLPRPRPRPVKFPRP, the “shrunken log2 fold change” value came to 0.0171. With RRIRERPPRLPRPRPRPPNQPRP the figure was -0.118. With RRIRYRPPRLPRPRPRPVRVPRP the figure was 0.0746; with RRIRTRPPRLPRPRPRPSSMPRP, -0.239.

For the sequence RRIRARPPRLPRPRPRPIGRPRP, the “shrunken log2 fold change” value stood at 0.00162. Next, RRIRRRPPRLPRPRPRPFYVPRP: -0.0483; RRIRERPPRLPRPRPRPMVGPRP: 0.17. Next, RRIRCRPPRLPRPRPRPELFPRP: 0.676. Next, RRIRARPPRLPRPRPRPTGPPRP: 0.284; RRIRSRPPRLPRPRPRPTQRPRP: 0.547; RRIRIRPPRLPRPRPRPACCPRP: -0.086.

As to RRIRHRPPRLPRPRPRPRMHPRP, the “shrunken log2 fold change” value is -0.0289. Next, RRIRIRPPRLPRPRPRPHKLPRP: -0.552; RRIRPRPPRLPRPRPRPTDLPRP: -0.0166. For the sequence RRIRLRPPRLPRPRPRPKPCPRP, the “shrunken log2 fold change” value was -0.158. Next, RRIRCRPPRLPRPRPRPTMDPRP: -0.237.

RRIRCRPPRLPRPRPRPCAEPRP: the “shrunken log2 fold change” value worked out at 0.0802.

For the sequence RRIRKRPPRLPRPRPRPECPPRP, the “shrunken log2 fold change” value turned out to be 0.306.

In the case of RRIRGRPPRLPRPRPRPNECPRP, the “shrunken log2 fold change” value was determined as 0.421.

With RRIRLRPPRLPRPRPRPDFLPRP, the “shrunken log2 fold change” value is -0.181. For RRIRRRPPRLPRPRPRPQYRPRP, the “shrunken log2 fold change” value is -0.0575.

For the sequence RRIRNRPPRLPRPRPRPHDSPRP, the “shrunken log2 fold change” value was -0.0662.

Consider RRIRPRPPRLPRPRPRPGDTPRP, for which the “shrunken log2 fold change” value is -0.0266. In the case of RRIRLRPPRLPRPRPRPYNHPRP, the “shrunken log2 fold change” value was -0.669. Next, RRIRHRPPRLPRPRPRPRVIPRP: -0.12; RRIRCRPPRLPRPRPRPIHGPRP: -0.33. With RRIRIRPPRLPRPRPRPYSSPRP the figure was -0.239. Turning to RRIRWRPPRLPRPRPRPSHWPRP, the “shrunken log2 fold change” value is 0.3. Next, RRIRQRPPRLPRPRPRPGQHPRP: -0.0301; RRIRLRPPRLPRPRPRPTHFPRP: 0.362. With RRIRLRPPRLPRPRPRPAPWPRP the figure was 0.354; with RRIRWRPPRLPRPRPRPYAPPRP, -0.232. Next, RRIRPRPPRLPRPRPRPLECPRP: -0.000998; RRIRFRPPRLPRPRPRPVVFPRP: -0.119. In the case of RRIRARPPRLPRPRPRPATCPRP, the “shrunken log2 fold change” value came out at 0.03. Next, RRIRRRPPRLPRPRPRPPNAPRP: 1.06; RRIRTRPPRLPRPRPRPGESPRP: -0.012. Regarding RRIRCRPPRLPRPRPRPEKIPRP, the “shrunken log2 fold change” value turned out to be 0.117. Next, RRIRFRPPRLPRPRPRPWQHPRP: -0.0848; RRIRMRPPRLPRPRPRPEKIPRP: 0.856; RRIRQRPPRLPRPRPRPKVPPRP: 0.105. Next, RRIRHRPPRLPRPRPRPENNPRP: -0.304; RRIRLRPPRLPRPRPRPGWEPRP: 0.14. As for RRIRPRPPRLPRPRPRPQWYPRP, the “shrunken log2 fold change” value is -0.257. With RRIRQRPPRLPRPRPRPWSTPRP the figure was -0.0264; with RRIRNRPPRLPRPRPRPSTDPRP, -0.0474. In the case of RRIRVRPPRLPRPRPRPGSRPRP, the “shrunken log2 fold change” value was 0.177.

Consider RRIRKRPPRLPRPRPRPTFMPRP, for which the “shrunken log2 fold change” value was found to be 0.189. Next, RRIRYRPPRLPRPRPRPDFFPRP: 0.373. With RRIRWRPPRLPRPRPRPFCQPRP the figure was -0.0441. Next, RRIRWRPPRLPRPRPRPNMEPRP: 0.0936; RRIRARPPRLPRPRPRPYYCPRP: -0.331; RRIRFRPPRLPRPRPRPREGPRP: 0.285. In the case of RRIRGRPPRLPRPRPRPSAPPRP, the “shrunken log2 fold change” value came out at 0.711.

On to RRIRERPPRLPRPRPRPSMNPRP, for which the “shrunken log2 fold change” value was -0.573.

Regarding RRIRQRPPRLPRPRPRPNHGPRP, the “shrunken log2 fold change” value was -0.00507. Next, RRIRARPPRLPRPRPRPQWMPRP: 0.0371.
